# In patent publication US12558435B2, “Transient inhibition of p53 in gene therapy” (Ospedale San Raffaele S.R.L., priority 2018, dated 2026):
# B1: E4orf6/7: adenoviral protein from adenovirus serotype 5 E4 gene (SEQ ID No. 2), delivered as mRNA (protein)
# chain: MTTSGVPFGMTLRPTRSRLSRRTPYSRDRLPPFETETRATILEDHPLLPECNTLTMHNAWTSPSPPVKQPQVGQQPVAQQLDSDMNLSELPGEFINITDERLARQETVWNITPKNMSVTHDMMLFKASRGERTVYSVCWEGGGRLNTRVL
# modifications: delivered as mRNA; example amino acid sequence of Ad5-E4orf6/7
# B2: GSE56: p53 dominant negative peptide (SEQ ID No. 9), transiently overexpressed from electroporated mRNA (protein)
# chain: MDGWCPGRDRRTEEENFRKKEEHCPELPPGSAKRALPTSTSSSPQQKKKPLDGEYFTLKIRGRERFEMFRELNEALELKDARAAEESGDSRAHSSYPKIVS
# modifications: amino acid sequence of GSE56
# How the values were obtained:
# human CD34+ cells [1] = test: Culture (subpopulation) composition of edited CD34+ cells by flow cytometry; type: cell-based
# Method: For immunophenotypic analyses (performed on FACSCanto II; BD Pharmingen), we used the antibodies listed below. Single stained and Fluorescence Minus One stained cells were used as controls. LIVE/DEAD Fixable Dead Cell Stain Kit (Thermo Fisher), 7-aminoactinomycin (Sigma Aldrich), were included in the sample preparation for flow cytometry according to the manufacturer's instructions to exclude dead cells from the analysis. Cell sorting was performed using MoFlo XDP Cell Sorter (Beckman Coulter) or FACSAria Fusion (BD Biosciences).
# human CD34+ cells [2] = test: CFU-C / colony forming cell assay of edited CD34+ cells; type: cell-based; conditions: for erythroid and myeloid clonogenic output compared to standard protocol: FIG. 14G
# [3] = tested on: human CD34+ cells transplanted into NSG mice; test: Xenotransplantation of edited human CD34+ cells in NSG mice; type: in vivo
# Method: For transplantation, 3×10^5 CD34+ cells treated for editing at day 5 of culture were injected intravenously into NSG mice after sub-lethal irradiation (150-180 cGy). Sample size was determined by the total number of available treated cells. Mice were attributed to each experimental group randomly. Human CD45+ cell engraftment and the presence of gene-edited cells were monitored by serial collection of blood from the mouse tail and, at the end of the experiment (>20 weeks after transplantation), BM and spleen were harvested and analyzed.
# NOD-SCID-IL2Rg^−/− (NSG) mice were purchased from The Jackson Laboratory and were maintained in specific-pathogen-free (SPF) conditions. The procedures involving animals were designed and performed with the approval of the Animal Care and Use Committee of the San Raffaele Hospital (IACUC #749) and communicated to the Ministry of Health and local authorities according to Italian law. For transplantation, 1.5-3×10^5 (for primary) or 2×10^6 (for secondary) CD34^+ treated cells at 24 hours post-editing protocol were injected intravenously into NSG mice after sub-lethal irradiation (180 cGy). Sample size was determined by the total number of available treated cells. Mice were attributed to each experimental group randomly. Human CD45^+ cell engraftment and the percentage of edited GFP^+ cells were monitored by serial collection of blood from the mouse tail over the weeks post-transplantation and at the end of the experiment (18-20 weeks post-transplantation) both spleen and bone-marrow were harvested and analysed.
# human primary T cells = test: Gene editing of human primary T cells; type: cell-based; conditions: 20 days after treatment; bulk CD3+, CD4 and CD8 subpopulations; FIG. 9B
# Description: Finally, we tested the delivery of the E4orf6/7 mRNA together with the Cas9 ribonucleoprotein (RNP) into human primary T cells (peripheral blood derived total CD3+ cells) before AAV6 transduction for the delivery of the donor DNA template (FIG. 9A).
# [4] = tested on: p53-target genes (CDKN1A, PHLDA3, RPS27L, APOBEC3H); test: TaqMan expression of p53-target genes in edited CD34+ cells; type: cell-based, human; conditions: 24 hrs after electroporation; FIG. 3B
# Description: For gene expression analyses, total RNA was extracted using the RNeasy Plus Micro Kit (QIAGEN). cDNA was synthetized with SuperScript VILO IV cDNA Synthesis Kit (Invitrogen) and used for Q-PCR in a Viia7 Real-time PCR thermal cycler using TaqMan Gene Expression Assays (Applied Biosystems) mapping to CDKN1A, RPS27L, PHLDA3, APOBEC3H, and HPRT as normalizer. The relative expression of each gene was first normalized to HPRT expression and then represented as fold change relative to the mock-treated sample.
# human CD34+ cells [5] = test: Cell growth curve of edited CD34+ cells; type: cell-based
# [6] = tested on: HDR-edited human cells in NSG mice; test: Barcoding-based clonal tracking of edited cells in transplanted NSG mice; type: in vivo; conditions: AAVS1; FIG. 12E
# Description: The barcoded AAV6 donor template targeting the AAVS1 locus was obtained by subcloning the degenerated sequence into the previously reported AAVS1 AAV6 transfer vector plasmid downstream of the polyadenylation sequence. Briefly, a ssODN embedding the random sequence flanked by the unique cloning restriction sites (Bsu36l and Sphl) was obtained from Sigma Aldrich. The degenerated region was designed to avoid any undesired cutting by cloning restriction enzymes. To generate the complementary strand, 50 pmol of the ssODN were amplified with 10 cycles of PCR with Easy-A High-Fidelity enzyme (Agilent Technologies) using the appropriate forward and reverse primers according to the manufacturer's instructions. The amplified product was purified with MinElute PCR Purification kit (QIAGEN), digested with the restriction enzymes and checked by capillary electrophoresis. 2 μg of the Bsu36l/Sphl-digested AAVS1 HDR donor template were ligated with the digested insert (molar ratio 1:7) using T4 DNA Ligase (NEB) by scaling up the manufacturer's protocol. […]
# PCR amplicons for each individual sample were generated by one-step PCR using Taq G2 Hot Start Polymerase (Promega). […] PCR library amplicons were separately purified using MinElute PCR Purification kit (QIAGEN) and quality was assessed by Agilent Tapestation (Agilent Technologies). […]
# [7] = tested on: human CD34+ cells transplanted into NSG mice; test: Xenotransplantation of edited human CD34+ cells in NSG mice; type: in vivo; conditions: limit cells dose T0eq=1×10^5/mouse; FIG. 19A
molecule,measurement,setting,value
B1,CD90+ fraction in culture composition,"human CD34+ cells [1]; 96 hours, FIG. 14E",significant skewing
same,culture composition,human CD34+ cells [1]; FIG. 10C,without any skew in the culture composition
same,increase in number of myeloid and erythroid colony forming units (CFU) compared to standard,human CD34+ cells [2]; FIG. 7C,2 fold
same,erythroid and myeloid clonogenic output compared to standard protocol,human CD34+ cells [2],not affected
same,"human CD45+ cell engraftment in bloodstream, between groups","[3]; AAVS1, T0eq=3×10^5/mouse, FIG. 17B",did not show any statistical significance
same,increase of the fraction of circulating edited cells,"[3]; AAVS1, T0eq=3×10^5/mouse, primary transplant, FIG. 17C",1.5 fold
same,"fraction of edited cells (GFP+ or HDR+) in blood, hematopoietic organs and blood lineages","[3]; AAVS1 edited CB CD34+, FIG. 11",significant higher fraction of edited cells
same,overall level of engraftment of the human cells,"[3]; AAVS1 edited CB CD34+, FIG. 11",does not affect the overall level of engraftment
same,increase in the percentage of GFP+ cells compared to standard,human primary T cells,1.5 fold
B2,amplitude of the p53-dependent transcriptional response (downstream target genes),[4],reduce the amplitude of the p53-dependent transcriptional response
same,expansion of treated HSPC,"human CD34+ cells [5]; AAVS1 edited cells, FIG. 3D",higher expansion
same,cell growth compared to standard RNP+AAV6,"human CD34+ cells [5]; days post-editing, FIG. 14B",about 2 fold
same,relative composition of the hematopoietic populations,"human CD34+ cells [1]; 3 days post editing, vs untreated controls, FIG. 3E",no change in relative composition
same,erythroid and myeloid clonogenic output compared to standard protocol,human CD34+ cells [2],improved
same,erythroid and myeloid clonogenic output,"human CD34+ cells [2]; sorted populations, FIG. 3F",increased particularly in CD90+ fraction
same,"fraction of HDR-edited cells in the PB, average","[3]; 22 weeks post transplantation, IL2RG edited cells, FIG. 4D",32%
same,engraftment in the haematopoietic organs,"[3]; AAVS1, limited dose T0eq=1.5×10^5/mouse, FIG. 12C",significantly higher engraftment
same,percentage of human cells in the peripheral blood,"[3]; CD40LG-edited cells, FIG. 13B",higher percentage of human cells
same,percentage of gene correction over time,"[3]; CD40LG-edited cells, FIG. 13C",more stable percentage of gene correction over time
same,"percentage of corrected cells in sorted cell types, vs standard","[3]; CD40LG-edited cells, endpoint, included CD34+ cells, FIG. 13E",3- to 6 fold
same,differentiation output,"[3]; IL2RG edited cells, PB lineages, FIG. 4C",without any skewing in the differentiation output
same,human CD45+ engraftment,"[3]; IL2RG edited cells, PB of NSG mice, FIG. 4B",increased engraftment
same,engraftment of treated cells,[3]; discussion summary,higher engraftment of treated cells
same,"number of dominant clones in haematopoietic organs, vs standard",[6],6.5 fold
same,engraftment of treated cells compared to standard protocol,[7],5-6 fold
